Here are results for twelve molecules from patent publication US20260258084A1, “New Peptides as Selective IL-23 Receptor Antagonists” (Sanofi, priority 2022, published 2026).

Starred links: 1 amine or outer side, 2 acyl side, 3 side chain; linkers in the order of their positions; H or OH if unused. Positions of bridges follow the written chain, without caps; N, C: chain ends. Non-standard residues stand in square brackets, D forms with d. Yde = (2S)-2-amino-3-[4-[2-(dimethylamino)ethoxy]phenyl]propanoic acid, CN(C)CCOc1ccc(C[C@H](N[*:1])C(=O)[*:2])cc1; Phe(4-OMe) = COc1ccc(C[C@H](N[*:1])C(=O)[*:2])cc1; Trp(7-Me) = Cc1cccc2c(C[C@H](N)C(=O)O)c[nH]c12; αMeLys(Me2) = CN(C)CCCC[C@](C)(N)C(=O)O; 2Nal = N[C@@H](Cc1ccc2ccccc2c1)C(=O)O; εLys = N[C@@H](CCCCN[*:1])C(=O)[*:2]; AEF = NCCOc1ccc(C[C@H](N)C(=O)O)cc1; NMe5Ava = CN(CCCCC(=O)[*:2])[*:1]; 3Pal = N[C@@H](Cc1cccnc1)C(=O)O; NMeN = CN[C@@H](CC(N)=O)C(=O)O; αMeL = CC(C)C[C@](C)(N)C(=O)O; Thp = NC1(C(=O)O)CCOCC1; Aib = CC(C)(N)C(=O)O; Ahx = NCCCCCC(=O)O; Ava = NCCCCC(=O)O; Sar = CNCC(=O)O

Sequences and labels used below:
B1: Compound of SEQ ID NO: 55 (peptide)
peptide: [Ava]CNT[Trp(7-Me)]K(Ac)C[Yde][2Nal][Thp]ENHX-NH2
modifications: lactam N-11; disulfide 2-7; not fully specified (residue 14); printed as Apt(§1)-C(@2)-N-T-Wim-K[Ac]-C(@2)-Yde-Nal-Thp-E(§1)-N—H-Mep-NH2
B2: Compound of SEQ ID NO: 59 (peptide)
peptide: [Ava]C[εLys](Ac)WK(Ac)C[Yde][2Nal][αMeLys(Me2)]EN[3Pal][Sar]-NH2
modifications: lactam N-10; disulfide 2-6; also: Cys2 bonded to epsilon-NH2 of Lys3, Lys3 alpha-amine acetylated (K[aAc])
B3: Compound of SEQ ID NO: 6 (peptide)
peptide: [Ahx]C[NMeN]TWQC[Phe(4-OMe)][2Nal][Aib]DNN-NH2
modifications: lactam N-11; disulfide 2-7
SMILES: COc1ccc(C[C@@H]2NC(=O)[C@@H]3CSSC[C@H](NC(=O)CCCCCNC(=O)C[C@@H](C(=O)N[C@@H](CC(N)=O)C(=O)N[C@@H](CC(N)=O)C(N)=O)NC(=O)C(C)(C)NC(=O)[C@H](Cc4ccc5ccccc5c4)NC2=O)C(=O)N(C)[C@@H](CC(N)=O)C(=O)N[C@@H]([C@@H](C)O)C(=O)N[C@@H](Cc2c[nH]c4ccccc24)C(=O)N[C@@H](CCC(N)=O)C(=O)N3)cc1
B4: Compound of SEQ ID NO: 56 (peptide)
peptide: [Ava]CNT[Trp(7-Me)]K(Ac)C[Yde][2Nal][Thp]ES[3Pal][Sar]-NH2
modifications: lactam N-11; disulfide 2-7
SMILES: CC(=O)NCCCC[C@@H]1NC(=O)[C@H](Cc2c[nH]c3c(C)cccc23)NC(=O)[C@H]([C@@H](C)O)NC(=O)[C@H](CC(N)=O)NC(=O)[C@@H]2CSSC[C@H](NC1=O)C(=O)N[C@@H](Cc1ccc(OCCN(C)C)cc1)C(=O)N[C@@H](Cc1ccc3ccccc3c1)C(=O)NC1(CCOCC1)C(=O)N[C@H](C(=O)N[C@@H](CO)C(=O)N[C@@H](Cc1cccnc1)C(=O)N(C)CC(N)=O)CCC(=O)NCCCCC(=O)N2
B5: Compound of SEQ ID NO: 58 (peptide)
peptide: [Ava]CNTWK(Ac)C[Yde][2Nal][αMeLys(Me2)]EN[3Pal][Sar]-NH2
modifications: lactam N-11; disulfide 2-7
SMILES: CC(=O)NCCCC[C@@H]1NC(=O)[C@H](Cc2c[nH]c3ccccc23)NC(=O)[C@H]([C@@H](C)O)NC(=O)[C@H](CC(N)=O)NC(=O)[C@@H]2CSSC[C@H](NC1=O)C(=O)N[C@@H](Cc1ccc(OCCN(C)C)cc1)C(=O)N[C@@H](Cc1ccc3ccccc3c1)C(=O)N[C@@](C)(CCCCN(C)C)C(=O)N[C@H](C(=O)N[C@@H](CC(N)=O)C(=O)N[C@@H](Cc1cccnc1)C(=O)N(C)CC(N)=O)CCC(=O)NCCCCC(=O)N2
B6: Compound of SEQ ID NO: 63 (peptide)
peptide: [Ava]CNT[Trp(7-Me)]QC[Yde][2Nal][αMeL]EN[3Pal][Sar]-NH2
modifications: lactam N-11; disulfide 2-7
SMILES: Cc1cccc2c(C[C@@H]3NC(=O)[C@H]([C@@H](C)O)NC(=O)[C@H](CC(N)=O)NC(=O)[C@@H]4CSSC[C@H](NC(=O)[C@H](CCC(N)=O)NC3=O)C(=O)N[C@@H](Cc3ccc(OCCN(C)C)cc3)C(=O)N[C@@H](Cc3ccc5ccccc5c3)C(=O)N[C@@](C)(CC(C)C)C(=O)N[C@H](C(=O)N[C@@H](CC(N)=O)C(=O)N[C@@H](Cc3cccnc3)C(=O)N(C)CC(N)=O)CCC(=O)NCCCCC(=O)N4)c[nH]c12
B7: Compound of SEQ ID NO: 60 (peptide)
peptide: [NMe5Ava]C[εLys](Ac)[Trp(7-Me)]K(Ac)C[Yde][2Nal][Aib]ENH-NH2
modifications: lactam N-10; disulfide 2-6; also: Cys2 bonded to epsilon-NH2 of Lys3, Lys3 alpha-amine acetylated (K[aAc])
B8: Compound of SEQ ID NO: 54 (peptide)
peptide: [Ava]CNT[Trp(7-Me)]K(Ac)C[Yde][2Nal][αMeLys(Me2)]EN[dL]-NH2
modifications: lactam N-11; disulfide 2-7
SMILES: CC(=O)NCCCC[C@@H]1NC(=O)[C@H](Cc2c[nH]c3c(C)cccc23)NC(=O)[C@H]([C@@H](C)O)NC(=O)[C@H](CC(N)=O)NC(=O)[C@@H]2CSSC[C@H](NC1=O)C(=O)N[C@@H](Cc1ccc(OCCN(C)C)cc1)C(=O)N[C@@H](Cc1ccc3ccccc3c1)C(=O)N[C@@](C)(CCCCN(C)C)C(=O)N[C@H](C(=O)N[C@@H](CC(N)=O)C(=O)N[C@H](CC(C)C)C(N)=O)CCC(=O)NCCCCC(=O)N2
B9: Compound of SEQ ID NO: 62 (peptide)
peptide: [Ava]CNT[Trp(7-Me)]QC[Yde][2Nal][Aib]EN[3Pal][Sar]-NH2
modifications: lactam N-11; disulfide 2-7
SMILES: Cc1cccc2c(C[C@@H]3NC(=O)[C@H]([C@@H](C)O)NC(=O)[C@H](CC(N)=O)NC(=O)[C@@H]4CSSC[C@H](NC(=O)[C@H](CCC(N)=O)NC3=O)C(=O)N[C@@H](Cc3ccc(OCCN(C)C)cc3)C(=O)N[C@@H](Cc3ccc5ccccc5c3)C(=O)NC(C)(C)C(=O)N[C@H](C(=O)N[C@@H](CC(N)=O)C(=O)N[C@@H](Cc3cccnc3)C(=O)N(C)CC(N)=O)CCC(=O)NCCCCC(=O)N4)c[nH]c12
B10: Compound of SEQ ID NO: 53 (peptide)
peptide: [Ahx]C[Ava]WQC[AEF][2Nal][Aib]DAG-NH2
modifications: lactam N-10; disulfide 2-6
SMILES: C[C@H](NC(=O)[C@@H]1CC(=O)NCCCCCC(=O)N[C@H]2CSSC[C@H](NC(=O)[C@H](CCC(N)=O)NC(=O)[C@H](Cc3c[nH]c4ccccc34)NC(=O)CCCCNC2=O)C(=O)N[C@@H](Cc2ccc(OCCN)cc2)C(=O)N[C@@H](Cc2ccc3ccccc3c2)C(=O)NC(C)(C)C(=O)N1)C(=O)NCC(N)=O
B11: Compound of SEQ ID NO: 52 (peptide)
peptide: [Ava]CNT[Trp(7-Me)]QC[Yde][2Nal][Aib]ENH-NH2
modifications: lactam N-11; disulfide 2-7
SMILES: Cc1cccc2c(C[C@@H]3NC(=O)[C@H]([C@@H](C)O)NC(=O)[C@H](CC(N)=O)NC(=O)[C@@H]4CSSC[C@H](NC(=O)[C@H](CCC(N)=O)NC3=O)C(=O)N[C@@H](Cc3ccc(OCCN(C)C)cc3)C(=O)N[C@@H](Cc3ccc5ccccc5c3)C(=O)NC(C)(C)C(=O)N[C@H](C(=O)N[C@@H](CC(N)=O)C(=O)N[C@@H](Cc3c[nH]cn3)C(N)=O)CCC(=O)NCCCCC(=O)N4)c[nH]c12
B12: Compound of SEQ ID NO: 64 (peptide)
peptide: [Ava]CNT[Trp(7-Me)]K(Ac)C[Yde][2Nal][Aib]EN[3Pal][Sar]-NH2
modifications: lactam N-11; disulfide 2-7
SMILES: CC(=O)NCCCC[C@@H]1NC(=O)[C@H](Cc2c[nH]c3c(C)cccc23)NC(=O)[C@H]([C@@H](C)O)NC(=O)[C@H](CC(N)=O)NC(=O)[C@@H]2CSSC[C@H](NC1=O)C(=O)N[C@@H](Cc1ccc(OCCN(C)C)cc1)C(=O)N[C@@H](Cc1ccc3ccccc3c1)C(=O)NC(C)(C)C(=O)N[C@H](C(=O)N[C@@H](CC(N)=O)C(=O)N[C@@H](Cc1cccnc1)C(=O)N(C)CC(N)=O)CCC(=O)NCCCCC(=O)N2

This assay deals with T1, IL-23 receptor on the surface of HEK-Blue IL-23 cells (UniProt Q5VWK5 24-629, limits assumed).
T1 sequence (looked up): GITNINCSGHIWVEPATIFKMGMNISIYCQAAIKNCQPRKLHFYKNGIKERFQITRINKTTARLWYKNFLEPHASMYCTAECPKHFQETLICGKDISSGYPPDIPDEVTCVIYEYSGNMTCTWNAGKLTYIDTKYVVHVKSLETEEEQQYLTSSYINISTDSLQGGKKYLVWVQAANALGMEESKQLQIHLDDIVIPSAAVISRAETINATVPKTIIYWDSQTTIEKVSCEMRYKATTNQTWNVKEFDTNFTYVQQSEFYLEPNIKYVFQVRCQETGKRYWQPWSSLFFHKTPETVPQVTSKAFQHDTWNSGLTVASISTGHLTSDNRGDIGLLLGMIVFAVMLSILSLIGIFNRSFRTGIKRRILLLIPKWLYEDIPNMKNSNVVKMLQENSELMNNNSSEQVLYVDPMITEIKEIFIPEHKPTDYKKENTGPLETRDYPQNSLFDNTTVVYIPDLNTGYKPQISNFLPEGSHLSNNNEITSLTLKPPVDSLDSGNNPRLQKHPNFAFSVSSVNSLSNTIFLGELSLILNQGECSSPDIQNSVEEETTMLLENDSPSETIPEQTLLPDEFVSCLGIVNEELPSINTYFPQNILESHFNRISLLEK
The assay can be described thus: cell-based or functional assay.
Regarding B1, the “pSTAT3 (nM)” value came to 0.95 nM.

With B2, the “pSTAT3 (nM)” value turned out to be 0.07 nM.

For the molecule B3, the “pSTAT3 (nM)” value is 72.9 nM. Take B4: the “pSTAT3 (nM)” value was 0.16 nM. On to B5, for which the “pSTAT3 (nM)” value was 0.1 nM.

B6: the “pSTAT3 (nM)” value was determined as 0.2 nM. As for B7, the “pSTAT3 (nM)” value was found to be 0.16 nM. B8: the “pSTAT3 (nM)” value was 2.59 nM. B9: the “pSTAT3 (nM)” value was determined as 0.2 nM. To B10 belongs 60.8 nM; to B11, 1.25 nM; to B12, 0.22 nM.
